Reference: PMC9129911, “Electron Flow From the Inner Membrane Towards the Cell Exterior in Geobacter sulfurreducens: Biochemical Characterization of Cytochrome CbcL” (Frontiers in Microbiology, 2022)

Molecular target: T1, triheme cytochrome PpcA from Geobacter sulfurreducens (Geobacter sulfurreducens, three heme groups)
T1 chain: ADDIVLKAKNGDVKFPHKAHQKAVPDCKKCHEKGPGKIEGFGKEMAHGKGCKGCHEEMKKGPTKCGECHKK
Test: NMR titration; 1D 1H NMR chemical shift perturbation; CbcL (800 uM stock) added to 50 uM PpcA, both oxidized, 10 mM sodium phosphate pH 8, in 2H2O, 25°C; shift of PpcA heme methyl 18^1CH3^I fitted to a one binding site model under fast exchange
Conditions: both partners purified

B1: CbcL periplasmic domain (c- and b-type cytochrome for low potential) from Geobacter sulfurreducens (domain or fragment)
chain: IDPATCLGCHSNKISAAAFSASVHGKNACTSCHVEITDLTKHMKGEVKVEKVRCERCHKKENAEHYSSVHAQKDVRCADCHTDIHTHSYWNKDKRKVVAKCIQCHDKEAGYRNSIHGKGVAAGNMDSAACNDCHNLHDIKPLGDPKSKENREFHTKVCLKCHADEKMMERNNVFTVAVKTYMDSYHGKNYRLGFPEKVAGCADCHTAHGVLPAKDPNSSVNPQNLVATCAKCHPKATPLFTKFYSHGELG
modifications: nine c-type heme groups
Kd: 57 ± 9 µM
